According to article PMC2954335:

Target: ecCTLA-4 (Escherichia coli-expressed monomeric form of CTLA-4, extracellular region vl-Ig 1-124, cysteine 122 mutated to serine) (UniProt P16410)
Assay: SEC; monomeric ecCTLA-4 concentrated to 10 mg/ml, incubated 24 h at room temperature, then analytical size-exclusion chromatography with calibration curve; monomer to strand-swapped dimer and larger species

stoichiometry N: > 2
Substance: ecCTLA-4 (Escherichia coli-expressed monomeric form of CTLA-4, extracellular region vl-Ig 1-124, cysteine 122 mutated to serine) (from UniProt P16410 36-159) (domain or fragment)
